Substrate in this data set: O=C(O)c1c[nH]c2ccccc12
In words: LC-MS of adenylate. The class given is biochemical, Caenorhabditis elegans. Conditions: with ATP and coenzyme A; adenylate formed, no CoA ester.

B1: ACS-7 (Caenorhabditis elegans) (protein)
chain: MIFHGEQLENHDKPVHEVLLERFKVHQEKDPDNVAFVTAENEDDSLGFQQLGKKVLQISEWFVENGYKKGDVFLLASYNNWRCFAAALGAWRAGLIVSAAASQFTSFEMNYQIEDSQSQVILVDKHTLPVVQEACKNLKFVKQIISISANPPSPVIKFDVLTSRLVRNLKMPLIDPKNDIVFLPYSSGTTGKPKGVMISHLNFSMMLESSLRFFDANAKAIGLPPDFVLPYDLHFLPMYHAMGMFRTLLTSYRGTTQIMFTKFDMELMLKNIEKYSIMVLSLVPAIAVRMLNSPLLQKYDVSSLVSVTVGSAPFPESASKKLKQLLPNVNIVQGYGMTELTFATHLQSPGSPDGSVGRLVPGTSMKVKKEDGTLCGPHEIGELWIKGPQMMKGYWKKEQQTNELLDEHGFMRTGDIVYFDKNGETFICDRIKELIKVNAKQVAPAELESVILEHDDVADVCVFGVDDASSGERPVACVVSKRGRDMETSKAIMKHINQKLARYKHIKEIEFVSEIMRTGTGKLLRRAMKKAFLDAKKAKL
For orientation: Km means the substrate concentration at which the rate is half of its maximum. For the protein B1, the Km worked out at 270 ± 90 µM.

(Values after article PMC5486983.)
